Test results taken from IntAct's records for PubMed 11739402.

Legend:
[1] = target: gors1_rat Gorasp1 (UniProt O35254)
[2] = target: gors2_rat Gorasp2 (UniProt Q9R064)

Sequence of Transmembrane emp24 domain-containing protein 2 (Rattus norvegicus (Rat)), Q63524 V200A;V201A (Q63524 whole entry V200A/V201A, the tested form may be a part): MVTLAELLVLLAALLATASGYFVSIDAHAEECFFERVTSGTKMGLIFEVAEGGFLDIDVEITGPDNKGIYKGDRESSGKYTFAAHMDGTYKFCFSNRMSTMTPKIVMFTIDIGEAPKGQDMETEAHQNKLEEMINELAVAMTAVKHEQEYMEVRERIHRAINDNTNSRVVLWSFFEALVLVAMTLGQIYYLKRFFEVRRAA
Sequence of gors1_rat Gorasp1 (O35254 whole entry): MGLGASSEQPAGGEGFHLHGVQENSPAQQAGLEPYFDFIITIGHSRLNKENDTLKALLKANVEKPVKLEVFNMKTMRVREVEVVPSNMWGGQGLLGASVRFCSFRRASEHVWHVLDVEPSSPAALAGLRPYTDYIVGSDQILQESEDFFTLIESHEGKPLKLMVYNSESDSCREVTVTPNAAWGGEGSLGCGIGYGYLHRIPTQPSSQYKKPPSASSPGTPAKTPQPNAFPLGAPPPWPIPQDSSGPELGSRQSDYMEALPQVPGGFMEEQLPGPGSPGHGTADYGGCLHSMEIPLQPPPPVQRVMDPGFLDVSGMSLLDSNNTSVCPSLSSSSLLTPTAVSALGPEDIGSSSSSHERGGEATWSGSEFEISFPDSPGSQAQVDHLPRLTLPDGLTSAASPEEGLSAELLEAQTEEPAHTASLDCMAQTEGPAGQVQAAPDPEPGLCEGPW

effect of a mutation on the interaction [1]: decreasing interaction
effect of a mutation on the interaction [2]: decreasing interaction
Substance: Transmembrane emp24 domain-containing protein 2 (Rattus norvegicus (Rat)), Q63524 V200A;V201A
